Reference: US20110165170A1 (Pfizer, published 2011)
Read-outs that look alike come from different tables or passages of the source.

Assays:
[1] = biological target: T1, recombinant human osteopontin (R&D Systems #1433-OP/CF, carrier free) (human, UniProt P10451 17-314, biotinylated in the capture ELISA, on the SET plates and on the Biacore streptavidin chip); assay: solution equilibrium titration (SET), ECL, Fab
T1 construct: Bought protein; also called hOPN; human OPN
Protocol: Affinity determination in solution was basically performed as described in the literature (Friguet et al., J. Immunol. Methods 77:305 (1985)). In order to improve the sensitivity and accuracy of the SET method, it was transferred from classical ELISA to ECL based technology (Haenel et al., Anal. Biochem. 339:182-184 (2005)). 1 mg/mL goat-anti-human (Fab)₂ fragment specific antibodies (Dianova) were labeled with MSD Sulfo-TAG™ NHS-Ester (Meso Scale Discovery, Gaithersburg, Md., USA) according to the manufacturer's instructions. The experiments were carried out in polypropylene microtiter plates and PBS, pH 7.4, with 0.5% BSA and 0.02% Tween 20 as assay buffer. Unlabeled osteopontin was diluted in a 2n series, starting with a concentration at least 10 times higher than the expected KD. Wells without antigen were used to determine Bₘₐₓ values; wells with assay buffer were used to determine background. After addition of e.g. 25 pM Fab (final concentration in 60 μL final volume), the mixture was incubated over night at room temperature. The applied Fab concentration was similar to or below the expected KD.
Streptavidin coated MSD plates were blocked over night with 3% BSA in PBS (50 μL/well), subsequently the blocking solution was discarded and the plates were coated with […] biotinylated osteopontin in assay buffer (30 μL/well) for 1 hour. After washing the coated MSD plates with assay buffer, the equilibrated samples were transferred to those plates (30 μL/well) and incubated for 20 minutes. After washing, 30 μL/well of the MSD Sulfo-tag labeled detection antibody (goat anti-human (Fab)₂) in a final dilution of 1:1000 was added to the MSD plate and incubated for 30 minutes on an Eppendorf shaker (700 rpm).

[2] = biological target: T1, recombinant human osteopontin (R&D …); assay: Biacore (SPR), Fab over biotinylated human OPN on streptavidin chip
Protocol: (§1) Binding to immobilized antigen was analyzed using the BIAcore3000 instrument (Biacore, Sweden).
(§2) For antigen immobilization, two alternative strategies were used: in the case of human OPN, biotinylated human OPN was bound to a Streptavidin coated sensor chip (Biacore, Sweden) to a binding level of approximately 300 RU. The reference flow cell was coated with a similar amount of biotinylated HSA. In the case of murine OPN, the antigen was immobilized covalently using standard EDC-NHS amine coupling chemistry. CM5 chips (Biacore, Sweden) were coated with murine OPN in 10 mM acetate buffer, pH 3.5 to a level of 400 RU. For the reference flow cell, a respective amount of HSA was used. Regeneration was accomplished with two injections of 10 mM Gly/HCl, pH 1.5 (5 μL) and 50 mM phosphoric acid (5 μL), respectively. Kinetic measurements were done in Dulbeccos PBS, pH 7.4 (Gibco) with 0.05% Tween 20 at a flow rate of 20 μL/min using a 2n serial dilution row of Fab samples. The Fab concentrations ranged from 15.6 to 500 nM. The injection time for each concentration was 1 minute, and the dissociation time was set to a minimum of 3 minutes. A blank injection of running buffer was used for double referencing. All sensorgrams were fitted globally using BIA evaluation software 3.2 (Biacore, Sweden), to determine association and dissociation rate constants (kₒₙ and koff), which were used to calculate the affinity (KD=koff/kₒₙ).

[3] = biological target: T2, recombinant mouse osteopontin (R&D Systems #441-OP/CF, carrier free) (mouse, UniProt P10923 17-294, biotinylated in the capture ELISA); assay: Biacore (SPR), Fab over amine-coupled murine OPN on CM5 chip
T2 construct: Bought protein; also called mOPN; mouse OPN
Protocol: as §1, §2

[4] = biological target: T1, recombinant human osteopontin (R&D …); assay: cell-based or functional assay
[5] = biological target: T1, recombinant human osteopontin (R&D …); assay: Biacore 3000 (SPR), IgG flowed over amine-coupled human Osteopontin; avidity, 1:1 fit
Protocol: (§3) Binding avidity of monoclonal antibodies to Osteopontin was determined using Biacore analysis (General Electric Healthcare, Biacore 3000). To obtain nominal avidity measurements, human Osteopontin (R&D Systems, 1433-OP-050/CF) and mouse Osteopontin (R&D Systems, 441-OP-050/CF) were immobilized on a biosensor chip using standard amine coupling and various concentrations of monoclonal antibodies (MOR6990, MOR6991 and MOR6993) were flowed across the surface at 25.0° C. in 10 mM HEPES pH 7.4, 150 mM NaCl, 0.005% P20. The binding data were fit globally to a simple one-to-one binding model.

[6] = biological target: T1, recombinant human osteopontin (R&D …); assay: cell-based or functional assay; remark: listed apart in the source
[7] = biological target: T2, recombinant mouse osteopontin (R&D …); assay: Biacore 3000 (SPR), IgG flowed over amine-coupled mouse Osteopontin; avidity, 1:1 fit
Protocol: as §3

[8] = biological target: T1, recombinant human osteopontin (R&D …); assay: Biacore (SPR), Fab over immobilized human OPN
[9] = biological target: T1, recombinant human osteopontin (R&D …); assay: protein ELISA, Fab on human OPN protein
[10] = biological target: T2, recombinant mouse osteopontin (R&D …); assay: Biacore (SPR), Fab over immobilized mouse OPN
Protocol: as §2

[11] = biological target: T3, SPP1 peptide comprising functional domains of human OPN (27 aa) (human); assay: peptide ELISA, Fab on human SPP1 peptide
T3 construct: Target of the 'Peptide ELISA, hOPN' columns; also called hOPN peptide; SSP1 peptide

[12] = biological target: T4, SPP1 peptide comprising functional domains of mouse OPN (27 aa) (mouse); assay: peptide ELISA, Fab on mouse SPP1 peptide
T4 construct: Target of the 'Peptide ELISA, mOPN' columns; also called mOPN peptide; SSP1 peptide

[13] = biological target: T2, recombinant mouse osteopontin (R&D …); assay: protein ELISA, Fab on mouse OPN protein

T2 sequence (P10923 17-294 limits assumed): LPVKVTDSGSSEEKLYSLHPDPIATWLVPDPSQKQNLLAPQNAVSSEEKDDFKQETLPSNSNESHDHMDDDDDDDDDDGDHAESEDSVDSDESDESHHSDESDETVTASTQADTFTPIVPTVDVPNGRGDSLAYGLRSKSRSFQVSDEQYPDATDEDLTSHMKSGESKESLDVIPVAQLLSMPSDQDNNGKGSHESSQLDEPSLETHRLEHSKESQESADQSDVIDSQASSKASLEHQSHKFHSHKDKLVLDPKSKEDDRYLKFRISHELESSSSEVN
T1 sequence (P10451 other isoform, or with tags, fused parts or gaps limits assumed): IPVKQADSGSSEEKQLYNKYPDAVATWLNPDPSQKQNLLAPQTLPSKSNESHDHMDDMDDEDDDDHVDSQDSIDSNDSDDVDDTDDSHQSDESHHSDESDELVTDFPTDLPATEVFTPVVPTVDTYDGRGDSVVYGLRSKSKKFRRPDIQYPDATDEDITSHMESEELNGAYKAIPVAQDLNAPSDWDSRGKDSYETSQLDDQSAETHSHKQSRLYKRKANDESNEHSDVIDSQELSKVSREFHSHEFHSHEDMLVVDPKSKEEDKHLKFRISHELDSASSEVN

Row | Binder | Kd [1] [nM] | Kd [2] [nM] | Kd [3] [nM] | Adhesion Assay Mn2+-dependent hOPN, IC50 [4] [nM] | Kd [5] [nM] | koff [5] [s⁻¹] | kon [5] [M⁻¹ s⁻¹] | Adhesion Assay Mn2+-dependent hOPN, IC50 [6] [nM] | also measured
1 | HuCAL GOLD Fab 6991 (MOR-6991 Fab) (Fab, V domains shown, Fab format made in E. coli) VH: QVQLVESGGGLVQPGGSLRLSCAASGFTFNNYAVSWVRQAPGKGLEWVSGISYGGSNTYYADSVKGRFTISRDNSKNTLYLQMNSLRAEDTAVYYCARTLGGDFDHWGQGTLVTVSS VL: DIVLTQPPSVSGAPGQRVTISCSGSSSNIGSNYVNWYQQLPGTAPKLLIYGNSKRPSGVPDRFSGSKSGTSASLAITGLQSEDEADYYCQSFTQMLLVFGGGTKLTVL | 3 | 300 | 1390 | 264 |  |  |  |  | 
2 | HuCAL GOLD Fab 6990 (MOR-6990 Fab) (Fab, V domains shown, Fab format made in E. coli) VH: QVQLVESGGGLVQPGGSLRLSCAASGFTFSNYVMHWVRQAPGKGLEWVSSIFGSGSDTYYADSVKGRFTISRDNSKNTLYLQMNSLRAEDTAVYYCARSASSGFGFAGYGIDSWGQGTLVTVSS VL: DIELTQPPSVSVAPGQTARISCSGDSLRYYYAHWYQQKPGQAPVLVIYDDNKRPSGIPERFSGSNSGNTATLTISGTQAEDEADYYCQSWDLFHSSVFGGGTKLTVL | 35 | 140 | 2270 | 157 |  |  |  |  | 
3 | MOR-10475 Fab (Fab, V domains shown, Only variable domains are tied to the Fab) VH: QVQLVESGGGLVQPGGSLRLSCAASGFTFSNYVMHWVRQAPGKGLEWVSSIFGSGSDTYYADSVKGRFTISRDNSKNTLYLQMNSLRAEDTAVYYCARSASSGFGFAGYGIDSWGQGTLVTVSS VL: DIELTQPPSVSVAPGQTARISCSGDSLRYYYAHWYQQKPGQAPVLVIYDDNKRPSGIPERFSGSNSGNTATLTISGTQAEDEADYYCQAWDLINSHVFGGGTKLTVL |  |  |  |  |  |  |  |  | Kd [8]: 80 nM; EC50 [9]: 0.6 nM; Kd [10]: 41 nM; EC50 [11]: 0.7 nM; EC50 [12]: 0.7 nM; EC50 [13]: 0.6 nM
4 | HuCAL GOLD Fab 6993 (MOR-6993 Fab) (Fab, V domains shown, Fab format made in E. coli) VH: QVQLVESGGGLVQPGGSLRLSCAASGFTFTTSSMHWVRQAPGKGLEWVSRISSHGSNTYYADSVKGRFTISRDNSKNTLYLQMNSLRAEDTAVYYCARDMYRGVYGFALWGQGTLVTVSS VL: DIELTQPPSVSVAPGQTARISCSGDAIRNYYVHWYQQKPGQAPVLVIYEDSDRPSGIPERFSGSNSGNTATLTISGTQAEDEADYYCQSYDKSNVVFGGGTKLTVL | 0.2 | 70 | 3980 | 29.8 |  |  |  |  | 

The next lines start with results.

Row | Kd [1] [nM] | Kd [2] [nM] | Kd [3] [nM] | Adhesion Assay Mn2+-dependent hOPN, IC50 [4] [nM] | Kd [5] [nM] | koff [5] [s⁻¹] | kon [5] [M⁻¹ s⁻¹] | Adhesion Assay Mn2+-dependent hOPN, IC50 [6] [nM] | Binder | also measured
5 |  |  |  |  | 19 | 0.00933 | 491000 | 0.6 | MOR-6991 (full length human IgG2) (antibody, V domains shown, Human IgG2, lambda light chain; made in HKB11 cells) VH: QVQLVESGGGLVQPGGSLRLSCAASGFTFNNYAVSWVRQAPGKGLEWVSGISYGGSNTYYADSVKGRFTISRDNSKNTLYLQMNSLRAEDTAVYYCARTLGGDFDHWGQGTLVTVSS VL: DIVLTQPPSVSGAPGQRVTISCSGSSSNIGSNYVNWYQQLPGTAPKLLIYGNSKRPSGVPDRFSGSKSGTSASLAITGLQSEDEADYYCQSFTQMLLVFGGGTKLTVLG | 
6 |  |  |  |  | 20.9 | 0.00203 | 96900 | 0.4 | MOR-6990 (full length human IgG2) (antibody, V domains shown, Human IgG2, lambda light chain; made in HKB11 cells) VH: QVQLVESGGGLVQPGGSLRLSCAASGFTFSNYVMHWVRQAPGKGLEWVSSIFGSGSDTYYADSVKGRFTISRDNSKNTLYLQMNSLRAEDTAVYYCARSASSGFGFAGYGIDSWGQGTLVTVSS VL: DIELTQPPSVSVAPGQTARISCSGDSLRYYYAHWYQQKPGQAPVLVIYDDNKRPSGIPERFSGSNSGNTATLTISGTQAEDEADYYCQSWDLFHSSVFGGGTKLTVLG | Kd [7]: 4.7 nM; koff [7]: 0.000864 s⁻¹; kon [7]: 183000 M⁻¹ s⁻¹
7 |  |  |  |  | 0.752 | 0.00462 | 6.14e+06 | 0.4 | MOR-6993 (full length human IgG2) (antibody, V domains shown, Human IgG2, lambda light chain; made in HKB11 cells) VH: QVQLVESGGGLVQPGGSLRLSCAASGFTFTTSSMHWVRQAPGKGLEWVSRISSHGSNTYYADSVKGRFTISRDNSKNTLYLQMNSLRAEDTAVYYCARDMYRGVYGFALWGQGTLVTVSS VL: DIELTQPPSVSVAPGQTARISCSGDAIRNYYVHWYQQKPGQAPVLVIYEDSDRPSGIPERFSGSNSGNTATLTISGTQAEDEADYYCQSYDKSNVVFGGGTKLTVLG | Kd [7]: 0.747 nM; koff [7]: 0.00496 s⁻¹; kon [7]: 6.64e+06 M⁻¹ s⁻¹
